Assay results from the supplement of paper PMC5998384.

Columns and labels:
HeLa Kyoto [1] = experiment: thermal stability score vs G1/S (z-score of summed log2 fold changes over temperatures); higher = more thermally stable than in G1/S
HeLa Kyoto [2] = experiment: melting temperature (median over replicates), in situ; higher = more thermally stable
HeLa Kyoto [3] = experiment: solubility in G1/S (NP-40 vs SDS abundance) (log2 ratio); higher = more soluble; conditions: cell cycle stage: G1/S
HeLa Kyoto [4] = experiment: solubility change mitosis vs G1/S (difference of NP-40 vs SDS log2 ratios) (log2 ratio difference); higher = more soluble in mitosis
[5] = cell cycle stage: early G1 (4.5 h after nocodazole release)
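For melting temperature (median over replicates), in situ in this document: HeLa Kyoto cells synchronized by double thymidine or nocodazole block, proteins quantified by TMT10plex mass spectrometry, three independent biological replicates.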
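For solubility change mitosis vs G1/S (difference of NP-40 vs SDS log2 ratios) in this document: synchronized HeLa Kyoto cells (double thymidine block for G1/S, nocodazole release for mitosis), protein amounts in NP-40 versus SDS lysates quantified by mass spectrometry, three biological replicates.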
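For solubility in G1/S (NP-40 vs SDS abundance) in this document: HeLa Kyoto cells arrested at G1/S by double thymidine block, proteins quantified by TMT10plex mass spectrometry in mild NP-40 versus SDS extracts, three biological replicates.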
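For thermal stability score vs G1/S (z-score of summed log2 fold changes over temperatures) in this document: synchronized HeLa Kyoto cells, proteins quantified by TMT10plex mass spectrometry, three biological replicates, mitosis taken 0.5 h after nocodazole release, G1/S directly after double thymidine block.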

Chain of TIMM17A (chain, as listed by the source): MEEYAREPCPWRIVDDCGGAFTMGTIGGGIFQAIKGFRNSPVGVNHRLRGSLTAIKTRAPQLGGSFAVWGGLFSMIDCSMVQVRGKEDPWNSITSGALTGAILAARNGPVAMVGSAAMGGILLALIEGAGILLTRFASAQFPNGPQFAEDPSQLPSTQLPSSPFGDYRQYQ
Chain of YES1 (chain, as listed by the source): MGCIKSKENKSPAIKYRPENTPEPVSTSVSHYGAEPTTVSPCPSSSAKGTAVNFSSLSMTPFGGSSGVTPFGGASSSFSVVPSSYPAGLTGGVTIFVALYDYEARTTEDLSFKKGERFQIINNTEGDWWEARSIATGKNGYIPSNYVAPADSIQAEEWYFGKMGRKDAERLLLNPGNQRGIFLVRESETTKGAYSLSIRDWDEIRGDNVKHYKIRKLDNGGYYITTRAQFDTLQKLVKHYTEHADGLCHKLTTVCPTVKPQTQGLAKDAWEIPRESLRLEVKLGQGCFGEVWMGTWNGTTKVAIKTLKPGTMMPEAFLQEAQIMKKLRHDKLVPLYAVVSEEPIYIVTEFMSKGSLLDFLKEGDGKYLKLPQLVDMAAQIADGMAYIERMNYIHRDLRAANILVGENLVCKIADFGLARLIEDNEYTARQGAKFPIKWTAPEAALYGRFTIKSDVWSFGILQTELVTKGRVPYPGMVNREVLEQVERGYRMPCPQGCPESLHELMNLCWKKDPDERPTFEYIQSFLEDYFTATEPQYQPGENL
Chain of UBE2Q1 (chain, as listed by the source): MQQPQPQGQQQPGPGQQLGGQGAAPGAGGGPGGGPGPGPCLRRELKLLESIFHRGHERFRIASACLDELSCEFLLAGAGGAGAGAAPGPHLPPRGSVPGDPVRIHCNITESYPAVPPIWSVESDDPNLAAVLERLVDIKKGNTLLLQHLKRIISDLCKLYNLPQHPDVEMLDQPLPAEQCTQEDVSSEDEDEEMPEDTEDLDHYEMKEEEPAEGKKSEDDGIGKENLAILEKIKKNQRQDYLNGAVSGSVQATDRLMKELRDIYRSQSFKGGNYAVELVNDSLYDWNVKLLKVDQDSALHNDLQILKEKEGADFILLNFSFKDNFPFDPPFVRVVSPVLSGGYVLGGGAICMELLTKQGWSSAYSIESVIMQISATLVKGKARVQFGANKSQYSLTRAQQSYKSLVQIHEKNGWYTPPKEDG
Chain of STRIP1 (chain, as listed by the source): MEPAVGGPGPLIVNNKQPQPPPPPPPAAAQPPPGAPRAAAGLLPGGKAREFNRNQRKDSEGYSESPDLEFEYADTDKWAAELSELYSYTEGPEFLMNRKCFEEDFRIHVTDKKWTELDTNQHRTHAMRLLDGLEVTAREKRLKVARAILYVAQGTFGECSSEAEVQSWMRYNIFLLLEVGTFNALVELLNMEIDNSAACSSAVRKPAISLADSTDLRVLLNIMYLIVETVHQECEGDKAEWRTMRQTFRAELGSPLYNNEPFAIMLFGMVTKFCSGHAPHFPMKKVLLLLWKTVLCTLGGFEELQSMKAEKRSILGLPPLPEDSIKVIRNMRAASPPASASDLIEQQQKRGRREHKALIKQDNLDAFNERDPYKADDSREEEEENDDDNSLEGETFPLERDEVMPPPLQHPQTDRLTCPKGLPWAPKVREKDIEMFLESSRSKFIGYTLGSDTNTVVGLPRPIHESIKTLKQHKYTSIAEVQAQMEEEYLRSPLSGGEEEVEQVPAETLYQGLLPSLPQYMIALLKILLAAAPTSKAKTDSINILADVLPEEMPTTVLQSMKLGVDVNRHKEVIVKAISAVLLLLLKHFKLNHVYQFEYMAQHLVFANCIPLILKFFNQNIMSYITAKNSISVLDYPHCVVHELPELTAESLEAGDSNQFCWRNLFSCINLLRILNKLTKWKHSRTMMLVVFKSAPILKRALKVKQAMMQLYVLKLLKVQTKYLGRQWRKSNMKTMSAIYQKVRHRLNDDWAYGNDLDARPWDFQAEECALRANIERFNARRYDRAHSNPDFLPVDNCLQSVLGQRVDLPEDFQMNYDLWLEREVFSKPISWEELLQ
Chain of VPRBP (chain, as listed by the source): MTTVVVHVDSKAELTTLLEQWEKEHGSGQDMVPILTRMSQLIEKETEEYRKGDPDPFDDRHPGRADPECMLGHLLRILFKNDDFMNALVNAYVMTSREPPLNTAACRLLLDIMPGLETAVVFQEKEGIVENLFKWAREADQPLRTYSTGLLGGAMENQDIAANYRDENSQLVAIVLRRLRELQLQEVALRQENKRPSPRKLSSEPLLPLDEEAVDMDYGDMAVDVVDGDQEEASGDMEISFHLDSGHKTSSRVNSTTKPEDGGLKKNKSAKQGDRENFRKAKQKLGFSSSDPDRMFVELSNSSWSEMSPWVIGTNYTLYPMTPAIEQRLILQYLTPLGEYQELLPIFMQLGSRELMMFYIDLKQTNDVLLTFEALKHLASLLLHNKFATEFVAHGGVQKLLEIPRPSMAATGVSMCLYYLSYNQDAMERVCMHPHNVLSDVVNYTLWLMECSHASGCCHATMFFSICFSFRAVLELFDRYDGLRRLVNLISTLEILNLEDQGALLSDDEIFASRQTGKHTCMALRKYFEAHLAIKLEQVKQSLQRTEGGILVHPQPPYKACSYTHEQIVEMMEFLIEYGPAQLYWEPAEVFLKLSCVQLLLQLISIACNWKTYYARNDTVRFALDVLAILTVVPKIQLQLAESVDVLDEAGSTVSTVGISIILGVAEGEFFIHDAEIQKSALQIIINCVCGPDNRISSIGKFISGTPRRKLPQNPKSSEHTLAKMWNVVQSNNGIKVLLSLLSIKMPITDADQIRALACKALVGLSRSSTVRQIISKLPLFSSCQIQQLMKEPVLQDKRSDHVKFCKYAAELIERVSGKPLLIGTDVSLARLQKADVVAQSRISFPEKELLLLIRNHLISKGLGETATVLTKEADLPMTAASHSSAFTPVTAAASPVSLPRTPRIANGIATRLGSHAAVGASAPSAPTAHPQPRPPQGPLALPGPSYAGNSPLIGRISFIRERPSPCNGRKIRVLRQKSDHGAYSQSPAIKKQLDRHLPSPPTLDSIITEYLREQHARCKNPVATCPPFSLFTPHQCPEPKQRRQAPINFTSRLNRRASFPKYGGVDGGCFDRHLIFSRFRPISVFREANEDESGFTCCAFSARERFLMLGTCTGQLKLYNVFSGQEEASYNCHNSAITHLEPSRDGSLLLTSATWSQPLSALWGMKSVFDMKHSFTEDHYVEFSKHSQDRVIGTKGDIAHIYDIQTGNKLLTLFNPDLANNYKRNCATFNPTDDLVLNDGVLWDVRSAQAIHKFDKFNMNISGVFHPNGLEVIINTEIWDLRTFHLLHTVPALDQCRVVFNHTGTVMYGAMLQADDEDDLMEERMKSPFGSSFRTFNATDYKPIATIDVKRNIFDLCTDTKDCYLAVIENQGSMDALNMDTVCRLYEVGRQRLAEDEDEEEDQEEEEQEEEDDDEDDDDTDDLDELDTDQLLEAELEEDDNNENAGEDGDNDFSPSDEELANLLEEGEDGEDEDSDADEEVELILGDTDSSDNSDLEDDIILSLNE
Chain of STK38L (chain, as listed by the source): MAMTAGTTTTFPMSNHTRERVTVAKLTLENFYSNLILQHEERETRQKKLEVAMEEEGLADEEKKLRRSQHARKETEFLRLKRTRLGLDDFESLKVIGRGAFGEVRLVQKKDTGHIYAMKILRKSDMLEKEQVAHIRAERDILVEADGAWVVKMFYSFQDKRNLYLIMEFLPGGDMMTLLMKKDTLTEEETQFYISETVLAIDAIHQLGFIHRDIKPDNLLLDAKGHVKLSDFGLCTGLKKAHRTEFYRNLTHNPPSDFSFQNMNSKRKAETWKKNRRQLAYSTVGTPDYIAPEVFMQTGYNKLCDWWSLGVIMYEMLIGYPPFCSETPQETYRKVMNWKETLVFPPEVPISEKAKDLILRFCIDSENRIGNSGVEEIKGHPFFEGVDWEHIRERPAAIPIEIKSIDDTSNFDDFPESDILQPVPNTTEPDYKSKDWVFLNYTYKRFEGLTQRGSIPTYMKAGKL
Chain of THOP1 (chain, as listed by the source): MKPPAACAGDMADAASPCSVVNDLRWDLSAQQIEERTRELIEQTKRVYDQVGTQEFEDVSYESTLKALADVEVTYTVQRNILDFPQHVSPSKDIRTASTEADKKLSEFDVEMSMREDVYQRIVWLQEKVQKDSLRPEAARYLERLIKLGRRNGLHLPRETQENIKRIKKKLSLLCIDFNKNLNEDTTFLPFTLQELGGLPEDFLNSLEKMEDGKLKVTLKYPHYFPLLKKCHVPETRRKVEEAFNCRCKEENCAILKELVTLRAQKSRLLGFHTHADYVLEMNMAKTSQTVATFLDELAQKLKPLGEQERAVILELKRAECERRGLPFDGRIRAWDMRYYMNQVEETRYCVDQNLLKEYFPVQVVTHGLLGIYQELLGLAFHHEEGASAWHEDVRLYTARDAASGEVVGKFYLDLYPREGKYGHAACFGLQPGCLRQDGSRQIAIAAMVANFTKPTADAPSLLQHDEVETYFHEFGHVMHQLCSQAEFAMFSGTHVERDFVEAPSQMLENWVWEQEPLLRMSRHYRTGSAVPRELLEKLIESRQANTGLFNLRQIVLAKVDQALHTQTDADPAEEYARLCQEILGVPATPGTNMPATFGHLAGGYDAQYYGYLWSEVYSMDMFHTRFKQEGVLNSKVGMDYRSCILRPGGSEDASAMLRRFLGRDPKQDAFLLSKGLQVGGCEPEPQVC
Chain of SIRT5 (chain, as listed by the source): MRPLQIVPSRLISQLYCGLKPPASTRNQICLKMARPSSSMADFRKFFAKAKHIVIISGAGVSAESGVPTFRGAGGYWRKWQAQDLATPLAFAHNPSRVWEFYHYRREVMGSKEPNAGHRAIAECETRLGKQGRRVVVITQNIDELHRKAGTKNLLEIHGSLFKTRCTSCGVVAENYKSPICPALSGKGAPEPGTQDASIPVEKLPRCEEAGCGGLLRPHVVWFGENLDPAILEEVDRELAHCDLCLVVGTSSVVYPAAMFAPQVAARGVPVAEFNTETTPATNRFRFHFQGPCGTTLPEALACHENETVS

Substance	thermal stability score (HeLa Kyoto [1]; [5])	thermal stability score (HeLa Kyoto [1]; cell cycle stage: mitosis)	melting temperature (HeLa Kyoto [2]; cell cycle stage: mitosis) [°C]	solubility in G1/S (log2) (HeLa Kyoto [3])	solubility change mitosis (log2) (HeLa Kyoto [4])	melting temperature (HeLa Kyoto [2]; cell cycle stage: G1/S) [°C]
RSBN1	-1.37	-1.2	53.1	-0.345	0.0741	–
SBF1	0.301	-0.247	50.4	-0.118	-0.108	50.9
SETX	0.199	1.04	51	-0.385	0.0473	49.9
SIRT5	-0.174	0.987	50.9	0.419	-0.233	50.9
SLC7A1	-2.64	-4.52	60.9	-0.215	-0.171	61.5
SLC38A10	2.59	0.548	54.7	-0.351	0.284	54.2
SMARCA2	2.43	4.33	49.7	-0.129	-0.051	47.8
SON	0.322	4.26	49.4	-1.78	1.3	47.4
SORCS2	-2.23	-3.21	50.4	0.0123	-0.162	53.7
SPCS2	-0.361	-0.329	52.8	0.173	-0.0337	51.9
SPEN	1.63	4.49	50.4	-0.619	0.433	49
SRGAP1	0.466	0.773	51.2	0.2	-0.1	50.5
SRSF6	-0.248	-2.07	50.6	-0.646	0.385	49.8
STK38L	0.62	1.53	49.3	-0.0449	-0.074	50.2
STRIP1	0.575	0.412	49.6	0.0221	-0.214	51.3
SUCLG1	-0.306	-0.375	50.9	0.168	-0.0912	50.8
SVEP1	1.39	1.6	55.1	-0.163	-0.0333	54.1
TACC3	-0.722	1.13	53.1	0.351	0.304	53.3

Substance	thermal stability score (HeLa Kyoto [1]; [5])	thermal stability score (HeLa Kyoto [1]; cell cycle stage: mitosis)	melting temperature (HeLa Kyoto [2]; cell cycle stage: mitosis) [°C]	solubility in G1/S (log2) (HeLa Kyoto [3])	solubility change mitosis (log2) (HeLa Kyoto [4])	melting temperature (HeLa Kyoto [2]; cell cycle stage: G1/S) [°C]
TAF15	-0.357	-4.49	53.1	-0.786	0.12	51.1
THOP1	-1.55	-2.28	56.1	0.0611	-0.109	56.3
TIMM17A	-1.93	-3.23	58.7	0.157	-0.00894	58.5
TNKS1BP1	-3.49	-3.6	59.8	-0.0801	0.0438	57.1
TP53BP1	-3.39	-2.67	50.8	-0.0663	-0.107	49.9
TPP2	-1.14	-1.13	54.2	-0.0302	-0.106	54.6
TTN	2.14	1.45	51.5	-0.476	0.167	50.4
UBE2Q1	0.426	0.875	50.3	0.255	-0.042	50
UBR1	0.878	1.16	50.3	-0.252	-0.26	48.6
UBR4	-0.403	0.0628	50.4	-0.243	-0.163	51.3
UBR5	1.78	5.42	49.8	-0.142	-0.155	47.5
USP9X	-0.0892	0.618	50.6	-0.226	-0.134	50.4
VPRBP	-0.576	-0.973	50.6	-0.225	-0.0867	50.8
VPS13A	-1.93	-1.94	53.7	-0.236	-0.144	53.6
VWA8	1.66	1.12	50.4	-0.224	-0.0997	50.3
WDR62	0.713	1.36	49.3	-0.382	0.187	49
WRAP53	-1.59	-0.902	53.4	-0.0145	-0.144	53.7
YES1	0.418	0.409	50.9	-0.536	0.0165	51.2
